Laboratory results from US20160347804A1 (IPIERIAN, published 2016).

What was measured:
[1] = molecular target: T1, full-length recombinant tau (0N4R) (UniProt P10636-6 1-383); test: direct binding ELISA-type assay, purified mAb, full-length recombinant tau 0N4R
T1 construct: The screening step used biotin-labeled full-length tau; also called rTau383

[2] = molecular target: T2, eTau4 (human, UniProt P10636 2-124); test: direct binding assay, purified mAb, recombinant eTau fragment
T2 construct: Recombinant eTau fragment; also called recombinant eTau4
T2 sequence (P10636 other isoform, or with tags, fused parts or gaps limits assumed): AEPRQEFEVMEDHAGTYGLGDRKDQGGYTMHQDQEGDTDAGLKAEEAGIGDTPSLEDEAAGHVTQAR

[3] = molecular target: T3, eTau1 (human, UniProt P10636 2-547); test: as above
T3 construct: also called recombinant eTau1 fragment; eTau 2-172
T3 sequence (P10636 other isoform, or with tags, fused parts or gaps limits assumed): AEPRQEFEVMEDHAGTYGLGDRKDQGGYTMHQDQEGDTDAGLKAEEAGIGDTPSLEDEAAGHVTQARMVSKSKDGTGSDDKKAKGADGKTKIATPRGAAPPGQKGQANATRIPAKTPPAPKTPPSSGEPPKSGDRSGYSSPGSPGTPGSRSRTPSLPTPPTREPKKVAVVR

[4] = molecular target: T4, eTau3 (human, UniProt P10636 2-497); test: as above
T4 construct: Recombinant eTau fragment; also called recombinant eTau3; reTau3
T4 sequence (P10636 other isoform, or with tags, fused parts or gaps limits assumed): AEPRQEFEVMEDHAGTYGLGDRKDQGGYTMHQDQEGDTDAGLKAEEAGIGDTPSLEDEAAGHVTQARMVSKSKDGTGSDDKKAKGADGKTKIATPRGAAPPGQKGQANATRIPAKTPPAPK

[5] = molecular target: T5, eTau2 (human, UniProt P10636 2-526); test: as above
T5 construct: Recombinant eTau fragment; also called recombinant eTau2; reTau2
T5 sequence (P10636 other isoform, or with tags, fused parts or gaps limits assumed): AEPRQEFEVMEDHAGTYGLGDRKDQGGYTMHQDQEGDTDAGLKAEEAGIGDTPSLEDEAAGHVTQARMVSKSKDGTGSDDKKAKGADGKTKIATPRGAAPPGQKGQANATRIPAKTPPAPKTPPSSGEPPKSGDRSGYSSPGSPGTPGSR

[6] = molecular target: T2, eTau4; test: direct binding ELISA, antibody titrated on eTau4, OD-450 nm
[7] = molecular target: full-length recombinant tau (0N4R) (UniProt P10636 1-383); test: direct binding ELISA, antibody titrated on rTau383, OD-450 nm
full-length recombinant tau (0N4R) (UniProt P10636 1-383), sequence (P10636 other isoform, or with tags, fused parts or gaps): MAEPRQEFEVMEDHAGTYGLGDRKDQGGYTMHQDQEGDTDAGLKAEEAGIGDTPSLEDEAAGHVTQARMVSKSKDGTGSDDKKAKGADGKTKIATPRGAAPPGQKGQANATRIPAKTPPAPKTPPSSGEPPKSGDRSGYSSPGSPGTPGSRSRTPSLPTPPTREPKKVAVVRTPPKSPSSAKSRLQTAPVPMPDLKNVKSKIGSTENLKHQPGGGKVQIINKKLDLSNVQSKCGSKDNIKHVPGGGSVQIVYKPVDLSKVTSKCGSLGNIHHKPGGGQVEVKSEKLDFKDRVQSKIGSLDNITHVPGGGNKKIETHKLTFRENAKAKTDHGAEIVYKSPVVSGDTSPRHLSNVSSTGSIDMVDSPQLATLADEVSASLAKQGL

[8] = molecular target: T1, full-length recombinant tau (0N4R); test: as above

T1 sequence (P10636 other isoform, or with tags, fused parts or gaps limits assumed): as the sequence (P10636 other isoform, or with tags, fused parts or gaps) above

Binder | Kd [1] [nM] | binding result [2] | Kd [3] [nM] | binding result [4] | Kd [5] [nM] | Kd [2] [nM] | Kd [4] [nM] | EC50 (read off the curve) [6] [nM] | EC50 (read off the curve) [7] [nM] | binding result [3] | binding result [5] | binding result [8]
7297-2M1 (antibody, IgG1, V domains shown, also called anti-Tau mAb 7297-2M1) VH: EVQLEQSGAELVKPGASVKLSCKASGYTFISNWMHWVKQRPGQGLEWIGNIDPSDSETHYNQKFKDKATLTVDKSSSTAYMQLSSLTSEDSAVYYCARRDRDGYYFDYWGQGTTLTVSS VL: DIVLTQTPSSLSASLGGKVTITCKASQDINKYIAWYQHKPGKGPRLLIHYTSTLQSGIPSRFSGSGSGRDYSFSISNLEPEDIATYYCLQYDHLLTFGAGTKLELKR | 2.21 | no binding | 0.1 | no binding | 0.09 |  |  |  |  |  |  | 
IPN002 (antibody, V domains shown) VH: EVHLVESGGALVKPGGSLKLSCAASGFSFSKYGMSWVRQTPDKRLEWVATISSSGSRTYYPDSVKGQFTISRDNAKNTLYLQMSSLKSEDTAMYYCSISWDGAMDYWGQGTSVTVSS VL: DVLMTQTPLSLPVSLGDQASISCKSSQSIVHSNGNTYLEWYLQKPGQSPKLLVYKVSNRFSGVPDRFSGSGSGTDFTLKISRVEAEDLGTYYCFQGSLVPWAFGGGTKLEIK |  |  |  |  |  |  |  | ~0.1 | ~0.07 |  |  | 
7299-M2 (antibody, IgG1, V domains shown) VH: QVQLEESGAELVKPGASVKLSCKASGYTFTNYWINWVKQRPGQGLEWIGNIYPGSTRANYNEKFKSKATLTVDTSSSTAYMQVSSLTSDDSAVYYCTRTHSIWGQGTQVTVSA VL: DIVLTQTPLTLSVTIGQPASISCKSSQSLLYSDGKTFLNWLLQSPGQSPRLLIYLVSKLQSGVPDRFSGSGSGTDFTLKISRVEAEDLGVYYCVQGTHFPYTFGGGTKLEIKR |  |  |  | no binding |  | 0.8 |  | ~0.03 |  | no binding | no binding | no binding (tested: log -8.2 M (about 6e-9 M))
7298-M1 (antibody, IgG2a, V domains shown, also called anti-Tau mAb 7298-M1) VH: EVQLEESGGGLVQPGGSLSLSCAASGFTFTDYYMSWVRQPPGKALEWVALNRNKTKGYTTEYSASVKGRFTISRDNSQSILYLQMNALRAEDSATYYCARGMDYWGQGTSVTVSS VL: DIVLTQSPTSLAVSLGQRATISCRASKSVSTSDYSYMHWYQQKPGQPPKLLIYLASNLESGVPARFSGSGSGTDFTLNIHPVEEEDAATYYCQHSRELPFTFGGGTKLEIKR | 6.68 | no binding | 3 |  | 1 |  | 0.1 |  |  |  |  | 
7298-M2 (antibody, IgG2a, V domains shown, also called anti-Tau mAb 7298-M2) VH: EVQLEESGGGLVKPGGSLKLSCAASGFTFSTYPMSWVRQTPEKRLEWVASISNGGSTYYPDTVKGRFTISRDNARNILYLQMSSLRSEDTAMYYCARGRDYHFDFWGQGTTLTVSS VL: DIVLTQSPTSLAVSLGQRATISCRASKSVSTSDYSYMHWYQQKPGQPPKLLIYLASNLESGVPARFSGSGSGTDFTLNIHPVEEEDAATYYCQHSRELPFTFGGGTKLEIKR | 4.41 | no binding | 2 |  | 0.7 |  | 0.08 |  |  |  |  | 

The remaining binders from weak to strong by Kd [1], led by results:

Kd [1] [nM] | binding result [2] | Kd [3] [nM] | binding result [4] | Kd [5] [nM] | Kd [2] [nM] | Kd [4] [nM] | EC50 (read off the curve) [6] [nM] | EC50 (read off the curve) [7] [nM] | binding result [3] | binding result [5] | Binder | binding result [8]
0.511 |  | 0.6 |  | 1 | 0.5 | 0.6 |  |  |  |  | 7299-M5 (antibody, IgG2b, V domains shown) VH: EVKLEESGAELVKPGASVKLSCKASGYTFISNWMHWVKQRPGQGLEWIGNIDPSDSETHYNQKFKDKATLTVDKSSSTAYMQLSSLTSEDSAVYYCARRDRDGYYFDYWGQGTTLTVSS VL: DIVMTQSPLSLSVTIGQPASISCKSSQSLLYSDGKTYLNWLQQRPGQSPKRLVYQVSKLDPGIPDRFSGSGSETDFTLKLSRVEAEDLGVYYCLQGTYYPHTFGGGTKLEIKR | 
0.277 |  | 0.6 |  | 0.7 | 0.6 | 1 |  |  |  |  | 7299-M9 (antibody, IgG1, V domains shown) VH: EVKLEQSGAELVKPGASVKLSCKASGYTFTNYWINWVKQRPGQGLEWIGNIYPGSTRANYNEKFKSKATLTVDTSSSTAYMQVSSLTSDDSAVYYCTRTHSIWGQGTQVTVSA VL: DIVITQSPLSLSVTIGQPASISCKSSQSLLYSDGKTYLNWLQQRPGQSPKRLVYQVSKLDPGIPDRFSGSGSETDFTLKLSRVEAEDLGVYYCLQGTYYPHTFGGGTKLEIKR | 
0.117 | no binding | 0.0528 | no binding |  |  |  |  |  |  | no binding | 7295-M6 (antibody, V domains shown, also called anti-Tau mAb 7295-M6) VH: EVQLEESGAELVRSGASVTLSCTASGFNIKDYYIHWVKQRPEQGLEWIGWIDPENGDTEYAPKFQGKATMTADTSSNTAYLQLSSLTSEDTAVYYCNGAPGYWGPGTTLTVSS VL: DIVLTQTPLSLPVSLGDPASISCRSSQTIVHSNGNTYLEWYLQKPGQSPKLLIYKVSNRFSGVPDRFSGSGSGTDFTLKISRVEAEDLGVYYCFQGSHVPFTFGSGTKLEIKR | 
0.08 | no binding | 0.044 | no binding |  |  |  |  |  |  | no binding | 7295-M8 (antibody, IgG2b, V domains shown, also called anti-Tau mAb 7295-M8) VH: EVQLEESGAELVRSGASVTLSCTASGFNIKDYYIHWVKQRPEQGLEWIGWIDPENGDTEYAPKFQGKATMTADTSSNTAYLQLSSLTSEDTAVYYCNGAPGYWGPGTTLTVSS VL: DIVLTQTPLSLPVSLGDPASISCRSSQTIVHSNGNTYLEWYLQKPGQSPKLLIYKVSNRFSGVPDRFSGSGSGTDFTLKISRVEAEDLGVYYCFQGSHVPFTFGSGTKLEIKR | 
